# In patent publication US20040229260:
# T1: protein encoded by clone B33 (cDNA insert homologous to C-terminus of Nucleobindin), Q02818
# T1 chain: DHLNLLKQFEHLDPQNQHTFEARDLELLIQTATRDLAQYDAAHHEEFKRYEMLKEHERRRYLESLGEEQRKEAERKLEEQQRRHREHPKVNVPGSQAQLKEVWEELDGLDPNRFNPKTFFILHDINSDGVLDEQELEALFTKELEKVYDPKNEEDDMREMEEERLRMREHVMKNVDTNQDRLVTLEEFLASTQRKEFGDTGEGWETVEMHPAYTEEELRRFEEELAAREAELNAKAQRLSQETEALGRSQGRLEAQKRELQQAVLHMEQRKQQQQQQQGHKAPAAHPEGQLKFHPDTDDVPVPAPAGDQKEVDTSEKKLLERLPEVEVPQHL
# T2: protein encoded by clone L20 (identical to amino acids 104-420 of NEFA), P80303
# T2 chain: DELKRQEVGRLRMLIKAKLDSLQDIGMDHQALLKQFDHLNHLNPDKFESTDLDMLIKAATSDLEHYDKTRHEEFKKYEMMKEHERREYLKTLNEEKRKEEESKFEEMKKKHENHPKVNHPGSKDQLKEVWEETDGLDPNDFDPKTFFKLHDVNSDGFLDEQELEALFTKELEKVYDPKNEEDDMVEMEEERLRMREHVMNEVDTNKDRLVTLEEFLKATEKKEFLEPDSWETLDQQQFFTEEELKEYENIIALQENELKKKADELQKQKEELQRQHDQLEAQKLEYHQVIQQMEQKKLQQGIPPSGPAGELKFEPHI
# T3: polypeptide encoded by clone J2 (partial sequence of putative human N-acetylglucosamine-6-phosphate deacetylase)
# T3 chain: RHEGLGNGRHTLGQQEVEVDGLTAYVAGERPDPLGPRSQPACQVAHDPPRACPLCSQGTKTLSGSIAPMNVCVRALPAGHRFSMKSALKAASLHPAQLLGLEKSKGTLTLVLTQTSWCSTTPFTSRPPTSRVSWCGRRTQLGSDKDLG
# T4: bacterially produced caspase-8 (in-vitro protease assay of Example 2.4), Q14790
# T4 chain: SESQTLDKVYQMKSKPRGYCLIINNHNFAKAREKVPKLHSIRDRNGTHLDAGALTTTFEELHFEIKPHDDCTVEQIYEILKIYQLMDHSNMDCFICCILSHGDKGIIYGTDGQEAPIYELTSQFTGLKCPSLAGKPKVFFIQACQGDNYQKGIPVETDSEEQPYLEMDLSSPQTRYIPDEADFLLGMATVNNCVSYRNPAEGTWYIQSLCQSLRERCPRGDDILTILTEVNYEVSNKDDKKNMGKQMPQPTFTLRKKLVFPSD
# B1: bacterially produced caspase-8 (in-vitro protease assay of Example 2.4) (protein)
# chain: T4 chain
# B2: caspase 3 expressed in E. coli as Histidine tagged subunit 2-subunit 1 (S2-S1) fusion protein (protein)
# chain: SGISLDNSYKMDYPEMGLCIIINNKNFHKSTGMTSRSGTDVDAANLRETFRNLKYEVRNKNDLTREEIVELMRDVSKEDHSKRSSFVCVLLSHGEEGIIFGTNGPVDLKKITNFFRGDRCRSLTGKPKLFIIQACRGTELDCGIETDSGVDDDMACHKIPVEADFLYAYSTAPGYYSWRNSKDGSWFIQSLCAMLKQYADKLEFMHILTRVNRKVATEFESFSFDATFHAKKQIPCIVSMLTKELYFYH
# B3: caspase 9 expressed in E. coli as Histidine tagged subunit 2-subunit 1 (S2-S1) fusion protein (protein)
# chain: GALESLRGNADLAYILSMEPCGHCLIINNVNFCRESGLRTRTGSNIDCEKLRRRFSSLHFMVEVKGDLTAKKMVLALLELAQQDHGALDCCVVVILSHGCQASHLQFPGAVYGTDGCPVSVEKIVNIFNGTSCPSLGGKPKLFFIQACGGEQKDHGFEVASTSPEDESPGSNPEPDATPFQEGLRTFDQLDAISSLPTPSDIFVSYSTFPGFVSWRDPKSGSWYVETLDDIFEQWAHSEDLQSLLLRVANAVSVKGIYKQMPGCFNFLRKKLFFKTS
# B4: protein encoded by clone L5 (Tip60, Tat interacting protein 60 kDa, lacking amino acids 94 to 145) (protein)
# chain: MAEVGEIIEGCRLPVLRRNQDNEDEWPLAEILSVKDISGRKLFYVHYIDFNKRLDEWVTHERLDLKKIQFPKKEAKTPTKNGLPGSRPGSPEREVKRKVEVVSPATPVPSETAPASVFPQNGAARRAVAAQPGRKRKSNCLGTDEDSQDSSDGIPSAPRMTGSLVSDRSHDDIVTRMKNIECIELGRHRLKPWYFSPYPQELTTLPVLYLCEFCLKYGRSLKCLQRHLTKCDLRHPPGNEIYRKGTISFFEIDGRKNKSYSQNLCLLAKCFLDHKTLYYDTDPFLFYVMTEYDCKGFHIVGYFSKEKESTEDYNVACILTLPPYQRRGYGKLLIEFSYELSKVEGKTGTPEKPLSDLGLLSYRSYWSQTILEILMGLKSESGERPQITINEISEITSIKKEDVISTLQYLNLINYYKGQYILTLSEDIVDGHERAMLKRLLRIDSKCLHFTPKDWSKRGKW
# Legend:
# [1] = target: T1, protein encoded by clone B33 (cDNA …)
# [2] = target: T2, protein encoded by clone L20 (identical …)
# [3] = target: protein encoded by clone B11 (cDNA insert homologous to the C-terminal end of CTP-Phosphoenolamine cytidylyltransferase), Q99447
# protein encoded by clone B11 (cDNA insert homologous to the C-terminal end of CTP-Phosphoenolamine cytidylyltransferase), Q99447, sequence (Q99447 213-389): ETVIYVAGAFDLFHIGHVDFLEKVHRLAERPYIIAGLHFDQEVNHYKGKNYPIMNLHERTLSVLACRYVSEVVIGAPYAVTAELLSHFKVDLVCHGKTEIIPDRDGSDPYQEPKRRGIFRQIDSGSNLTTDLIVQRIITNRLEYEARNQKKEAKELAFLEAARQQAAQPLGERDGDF
# [4] = target: protein encoded by clone L12
# [5] = target: T3, polypeptide encoded by clone J2 …
# [6] = target: protein encoded by the partial P43 cDNA clone
# [7] = target: T4, bacterially produced caspase-8 …
protein,measurement,setting,value
B1,cleavage in vitro,[1],Clone B33 was cleaved by caspase-8 both in-vitro and in-vivo
same,cleavage in vitro,[2],Clone L20 is cleaved by caspase 8 both in-vitro and in-vivo
same,cleavage in the in-vitro protease assay,[3],Clone B11 was cleaved in-vitro by caspase-8 as demonstrated in the assay described in the above-mentioned Example 2.4
same,"cleavage in the in-vitro protease assay (35S labeled protein, SDS-PAGE, autoradiography)",[4],Clone L12 is cleaved in-vitro by caspase-8 as shown by an in-vitro protease assay
same,cleavage in vitro,[5],The polypeptide encoded by Clone J2 is cleaved in-vitro by caspase-8
B2,cleavage in the protease assay with bacterial lysate (1 or 4 RU),[6],it was not cleaved by caspase-3 nor by caspase-9
B3,cleavage in the protease assay with bacterial lysate (1 or 4 RU),[6],it was not cleaved by caspase-3 nor by caspase-9
B4,cleavage in the in-vitro protease assay,[7],Clone L5 was cleaved in-vitro by caspase-8 in the in-vitro protease assay described in Example 2.4
